Values quoted from earlier work, collected in publication PMC5342629.
Where two headings read alike, the source gives them in different places.

Experiments:
[1] = biological target: Cdc4 (Saccharomyces cerevisiae) (UniProt P07834)
[2] = biological target: Cdc4 (Saccharomyces cerevisiae) (UniProt P07834); remark: listed apart in the source
[3] = biological target: Cdc4 (Saccharomyces cerevisiae) (UniProt P07834); remark: listed apart in the source

UniProt P07834, sequence (P07834 whole entry): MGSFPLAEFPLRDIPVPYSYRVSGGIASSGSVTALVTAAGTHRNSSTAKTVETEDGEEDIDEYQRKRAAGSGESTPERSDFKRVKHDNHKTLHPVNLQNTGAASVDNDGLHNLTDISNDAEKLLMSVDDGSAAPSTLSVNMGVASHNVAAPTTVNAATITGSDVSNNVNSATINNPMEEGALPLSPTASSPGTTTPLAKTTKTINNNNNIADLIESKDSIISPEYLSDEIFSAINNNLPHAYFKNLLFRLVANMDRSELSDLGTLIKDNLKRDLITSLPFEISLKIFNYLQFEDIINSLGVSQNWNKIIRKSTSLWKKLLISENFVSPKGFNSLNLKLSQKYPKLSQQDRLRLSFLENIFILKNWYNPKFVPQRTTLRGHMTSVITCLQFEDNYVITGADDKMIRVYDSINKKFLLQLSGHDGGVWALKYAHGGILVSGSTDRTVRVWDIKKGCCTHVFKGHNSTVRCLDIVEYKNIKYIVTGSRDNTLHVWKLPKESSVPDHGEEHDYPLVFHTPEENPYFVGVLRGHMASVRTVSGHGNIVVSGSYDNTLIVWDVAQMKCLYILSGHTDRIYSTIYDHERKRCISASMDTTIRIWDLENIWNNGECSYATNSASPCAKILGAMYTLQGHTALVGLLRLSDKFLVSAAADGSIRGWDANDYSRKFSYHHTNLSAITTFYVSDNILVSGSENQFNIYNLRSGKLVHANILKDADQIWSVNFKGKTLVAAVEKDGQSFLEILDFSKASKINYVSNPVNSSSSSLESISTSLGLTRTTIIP

| Substance | Kd [1] [nM] | Kd [2] [µM] | Kd [3] [nM] |
| --- | --- | --- | --- |
| Sic1 (from UniProt P38634) | 1000 | > 50 | – |
| Sic1 20-residue peptide (from UniProt P38634) | – | – | 2400 |
